Assay results: publication PMC11281603

Target: polymeric Ig receptor (pIgR) fused to the FLAG tag (UniProt P01833)
Experiment: flow cytometry on cells

UniProt P01833, sequence (P01833 19-764): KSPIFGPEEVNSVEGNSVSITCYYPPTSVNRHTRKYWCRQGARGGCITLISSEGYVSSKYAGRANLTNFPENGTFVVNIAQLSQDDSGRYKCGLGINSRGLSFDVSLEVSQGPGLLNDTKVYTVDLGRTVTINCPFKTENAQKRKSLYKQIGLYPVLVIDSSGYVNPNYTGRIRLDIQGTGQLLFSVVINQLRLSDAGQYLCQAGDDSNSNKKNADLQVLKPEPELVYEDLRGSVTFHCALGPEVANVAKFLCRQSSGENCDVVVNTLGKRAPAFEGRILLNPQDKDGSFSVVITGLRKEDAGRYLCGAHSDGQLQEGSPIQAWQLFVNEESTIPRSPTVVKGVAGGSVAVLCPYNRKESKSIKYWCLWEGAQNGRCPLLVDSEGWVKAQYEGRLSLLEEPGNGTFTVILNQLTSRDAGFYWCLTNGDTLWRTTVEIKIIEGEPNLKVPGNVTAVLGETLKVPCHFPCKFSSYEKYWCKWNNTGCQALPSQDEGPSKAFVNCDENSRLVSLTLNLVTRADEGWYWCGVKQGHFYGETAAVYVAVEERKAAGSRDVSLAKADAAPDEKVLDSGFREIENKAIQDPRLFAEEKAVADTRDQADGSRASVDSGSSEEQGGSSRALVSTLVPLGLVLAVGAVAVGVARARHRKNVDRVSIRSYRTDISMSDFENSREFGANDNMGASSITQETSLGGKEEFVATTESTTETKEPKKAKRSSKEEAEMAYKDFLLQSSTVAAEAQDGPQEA

With “IgA from human colostrum (from UniProt P01591 23-159) (ligand)” the mean percent binding to pIgR-expressing cells, ORF8-expressing cells was 36.9%, the mean percent binding to pIgR-expressing cells, control cells was 59.6% and the percent ORF8 binding left with 10 ug/mL IgA was 18%.

For IgM from human serum (ligand), the mean percent binding to pIgR-expressing cells, ORF8-expressing cells was 25.1% and the mean percent binding to pIgR-expressing cells, control cells was 33.9%.
